Reference: FireProtDB (doi:10.1093/protein/15.6.455)

B1: Cytochrome c-551, P00099 (parent)
chain: MKPYALLSLLATGTLLAQGAWAEDPEVLFKNKGCVACHAIDTKMVGPAYKDVAAKFAGQAGAEAELAQRIKNGSQGVWGPIPMPPNAVSDDEAQTLAKWVLSQK

Variants of: B1
Details: Pseudomonas aeruginosa (strain ATCC 15692 / DSM 22644 / CIP 104116 / JCM 14847 / LMG 12228 / 1C / PRS 101 / PAO1), pH 3.6, Thermal, DSC, sodium acetate 50 mM, reversible: yes, structure 451C, whole UniProt chain shown; for ddG of mutation (higher = less stable) / heat capacity change of unfolding / unfolding enthalpy (calorimetric): 62.6 °C

Variant	ddG of mutation (higher = less stable)	heat capacity change of unfolding	unfolding enthalpy (calorimetric)	Tm	change of melting temperature, mutant - wild type (higher = more stable)
MKPYALLSLLATGTLLAQGAWAEDPEVLAKNKGCMACHAIDTKMVGPAYKDVAAKFAGQAGAEAELAQRIKNGSQGVWGPIPMPPNAVSDDEAQTLAKWVLSQK [F29A V35M]	-1.88 kcal/mol	0.64 kcal/mol/K	64.2 kcal/mol	72.4 °C	9.8 °C
MKPYALLSLLATGTLLAQGAWAEDPEVLAKNKGCMACHAIDTKMVGPAYKDVAAKYAGQAGAEAYLAQRIKNGSQGVWGPIPMPPNAVSDDEAQTLAKWVLSQK [F29A V35M F56Y E65Y]	-3.02 kcal/mol	1 kcal/mol/K	64.8 kcal/mol	77.4 °C	14.8 °C
MKPYALLSLLATGTLLAQGAWAEDPEVLAKNKGCMACHAIDTKMVGPAYKDVAAKYAGQAGAEAYLAQRIKNGSQGVWGPIPMPPNAVSDDEAQTLAKWILSQK [F29A V35M F56Y E65Y V100I]	-4.55 kcal/mol	1.12 kcal/mol/K	71.1 kcal/mol	82.4 °C	19.8 °C
MKPYALLSLLATGTLLAQGAWAEDPEVLAKNKGCMACHAIDTKMVGPAYKDVAAKFAGQAGAEAELAQRIKNGSQGVWGPIPMPPNAVSDDEAQTLAKWILSQK [F29A V35M V100I]	-2.61 kcal/mol	0.92 kcal/mol/K	64.4 kcal/mol		
MKPYALLSLLATGTLLAQGAWAEDPEVLFKNKGCVACHAIDTKMVGPAYKDVAAKYAGQAGAEAYLAQRIKNGSQGVWGPIPMPPNAVSDDEAQTLAKWVLSQK [F56Y E65Y]	-1.26 kcal/mol	0.74 kcal/mol/K	65.5 kcal/mol	69 °C	6.4 °C
MKPYALLSLLATGTLLAQGAWAEDPEVLFKNKGCVACHAIDTKMVGPAYKDVAAKYAGQAGAEAYLAQRIKNGSQGVWGPIPMPPNAVSDDEAQTLAKWILSQK [F56Y E65Y V100I]	-2.21 kcal/mol	0.95 kcal/mol/K	67 kcal/mol	73.3 °C	10.7 °C
MKPYALLSLLATGTLLAQGAWAEDPEVLFKNKGCVACHAIDTKMVGPAYKDVAAKFAGQAGAEAELAQRIKNGSQGVWGPIPMPPNAVSDDEAQTLAKWILSQK [V100I]	-1.11 kcal/mol	0.73 kcal/mol/K	65.6 kcal/mol		
